Data published in US20240150474A1 (Regeneron, published 2024).

T1: dimeric mouse ACVR1 (mouse, UniProt P37172 21-123, limits assumed)
T1 construct: also called Mouse Receptor ACVR1
T1 sequence (looked up): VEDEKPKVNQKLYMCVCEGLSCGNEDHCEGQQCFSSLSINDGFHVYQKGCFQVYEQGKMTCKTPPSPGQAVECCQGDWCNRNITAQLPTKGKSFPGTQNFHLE

T2: dimeric mouse BMPR1B (mouse, UniProt P36898 14-126, limits assumed)
T2 construct: Construct and dimerising part not described; also called Mouse Receptor BMPR1B
T2 sequence (looked up): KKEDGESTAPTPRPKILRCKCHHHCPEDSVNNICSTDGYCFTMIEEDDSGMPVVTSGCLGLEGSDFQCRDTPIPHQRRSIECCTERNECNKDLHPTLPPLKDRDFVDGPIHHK

T3: dimeric human BMPR1B (human, UniProt O00238 14-126, limits assumed)
T3 construct: Construct and dimerising part not described; also called Human Receptor BMPR1B
T3 sequence (looked up): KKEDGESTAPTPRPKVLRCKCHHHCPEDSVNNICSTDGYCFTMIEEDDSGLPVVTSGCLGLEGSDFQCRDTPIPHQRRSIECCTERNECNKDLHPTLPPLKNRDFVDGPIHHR

T4: dimeric human ACVR1 (human, UniProt Q04771 21-123, limits assumed)
T4 construct: ACVR1'; also called Human Receptor ACVR1
T4 sequence (looked up): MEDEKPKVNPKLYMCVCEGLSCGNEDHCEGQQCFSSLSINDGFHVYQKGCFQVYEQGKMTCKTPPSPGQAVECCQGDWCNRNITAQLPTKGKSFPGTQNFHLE

T5: dimeric mouse ACVRL1 (mouse, UniProt Q61288 23-119, limits assumed)
T5 construct: Construct and dimerising part not described; also called Mouse Receptor ACVRL1
T5 sequence (looked up): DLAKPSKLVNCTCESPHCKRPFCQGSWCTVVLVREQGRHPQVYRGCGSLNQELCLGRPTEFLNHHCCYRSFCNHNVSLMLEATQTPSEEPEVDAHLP

T6: mouse ACVR1 extracellular domain expressed with a C-terminal mouse IgG2a Fc tag (mouse, UniProt P37172 21-123)
T6 construct: extracellular domain; Bought from R&D Systems; also called mACVR1-mFc; R&D System 6506-RA-100; not shown: mouse IgG2a Fc tag
T6 sequence (looked up): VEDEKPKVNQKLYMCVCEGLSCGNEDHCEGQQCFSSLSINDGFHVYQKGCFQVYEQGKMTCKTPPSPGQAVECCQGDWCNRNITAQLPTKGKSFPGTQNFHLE


Assays:
dimeric mouse ACVR1 = molecular target: T1, dimeric mouse ACVR1; experiment: SPR Biacore T200, mAb captured by anti-human Fab, 100 nM dimeric receptor injected, 25C
Protocol: (§1) ACVR1 mAbs were tested for cross-reactivity to a panel of bone morphogenic protein type 1 receptors including human and mouse ACVR1, BMPR1A, and BMPR1B, as well as ACVRL1 on a Biacore T200 as follows. In order to measure the specificity of ACVR1 mAbs, ACVR1 mAbs were captured with anti-human Fab immobilized on a CM5 chip. 100 nM or 10 nM of dimeric human or mouse ACVR1, ACVRL1, BMPR1A or BMPR1B were injected at 30 μL/min for 2 min (duplicate injections) and the experiment was performed at 25° C. Binding of different receptors to the captured mAb was determined using Scrubber 2.0c software.

dimeric mouse BMPR1B = molecular target: T2, dimeric mouse BMPR1B; experiment: as above
Protocol: as §1

dimeric human BMPR1A = molecular target: T7, dimeric human BMPR1A (human, UniProt P36894 24-152, limits assumed); experiment: as above
T7 construct: Construct and dimerising part not described; also called Human Receptor BMPR1A
Protocol: as §1

dimeric human BMPR1B = molecular target: T3, dimeric human BMPR1B; experiment: as above
Protocol: as §1

dimeric mouse BMPR1A = molecular target: T8, dimeric mouse BMPR1A (mouse, UniProt P36895 24-152, limits assumed); experiment: as above
T8 construct: Construct and dimerising part not described; also called Mouse Receptor BMPR1A
Protocol: as §1

dimeric human ACVRL1 = molecular target: T9, dimeric human ACVRL1 (human, UniProt P37023 22-118, limits assumed); experiment: as above
T9 construct: Construct and dimerising part not described; also called Human Receptor ACVRL1
Protocol: as §1

dimeric human ACVR1 = molecular target: T4, dimeric human ACVR1; experiment: as above
Protocol: as §1

dimeric mouse ACVRL1 = molecular target: T5, dimeric mouse ACVRL1; experiment: as above
Protocol: as §1

[1] = molecular target: T6, mouse ACVR1 extracellular domain …; experiment: SPR Biacore T200, mAb captured by anti-human Fc, mACVR1-mFc injected, 37C
Protocol: Equilibrium dissociation constants (KD) for ACVR1 binding to purified anti-ACVR1 monoclonal antibodies were determined using a real-time surface plasmon resonance (SPR) based Biacore T200 biosensor. All binding studies were performed in 10 mM HEPES, 150 mM NaCl, 3 mM EDTA, and 0.05% v/v surfactant Tween-20, pH 7.4 (HBS-EP) running buffer at […]. The Biacore CM5 sensor surface was first derivatized by amine coupling with a monoclonal mouse anti-human Fc antibody (REGN2567) to capture anti-ACVR1 monoclonal antibodies. Different concentrations of ACVR1 reagents, human ACVR1 extracellular domain expressed with a C-terminal myc-myc-hexahistidine tag (hACVR1-mmh; REGN3111, SEQ ID NO: 63), mouse ACVR1 extracellular domain expressed with a C-terminal myc-myc-hexahistidine tag (mACVR1-mmh; REGN3407, SEQ ID NO: 65), human ACVR1 extracellular domain expressed with a C-terminal mouse IgG2a Fc tag (hACVR1-mFc; REGN3112, SEQ ID NO: 64); and mouse ACVR1 extracellular domain expressed with a C-terminal mouse IgG2a Fc tag (mACVR1-mFc, R&D system), at concentrations ranging from 0.41 nM to 100 nM in a series of 3-fold dilutions prepared in HBS-EP running buffer were injected at a flow rate of 50 μL/min for 1.5 minutes. The dissociation of different ACVR1 reagents bound to anti-ACVR1 monoclonal antibodies was monitored for 20 minutes in HBS-EP running buffer. At the end of each cycle, the anti-ACVR1 monoclonal antibodies capture surface was regenerated using a 12 sec injection of 20 mM H3PO4. The association rate (ka) and dissociation rate (kd) were determined by fitting the real-time binding sensorgrams to a 1:1 binding model with mass transport limitation using Scrubber 2.0c curve-fitting software. Binding dissociation equilibrium constant (KD) and dissociative half-life (t½) were calculated from the kinetic rates as: […]
Binding kinetics parameters for different ACVR1 reagents to anti-ACVR1 monoclonal antibodies of the invention at 37° C. are shown in Table 5 through Table 8.

T8 sequence (P36895 24-152 limits assumed): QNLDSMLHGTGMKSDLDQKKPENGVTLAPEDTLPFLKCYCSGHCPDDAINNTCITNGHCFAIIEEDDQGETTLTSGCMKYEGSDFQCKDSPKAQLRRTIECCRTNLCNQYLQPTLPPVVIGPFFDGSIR
T7 sequence (P36894 24-152 limits assumed): as the sequence (P36895 24-152 limits assumed) above, with L16S, P21S, T74A counted along it
T9 sequence (P37023 22-118 limits assumed): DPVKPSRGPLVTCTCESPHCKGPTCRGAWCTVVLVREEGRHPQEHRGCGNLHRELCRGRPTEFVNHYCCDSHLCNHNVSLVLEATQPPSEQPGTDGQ

100 nM Mouse Receptor Binding (dimeric mouse ACVR1) [RU]	100 nM Mouse Receptor Binding (dimeric mouse BMPR1B) [RU]	100 nM Human Receptor Binding (dimeric human BMPR1A) [RU]	100 nM Human Receptor Binding (dimeric human BMPR1B) [RU]	100 nM Mouse Receptor Binding (dimeric mouse BMPR1A) [RU]	100 nM Human Receptor Binding (dimeric human ACVRL1) [RU]	100 nM Human Receptor Binding (dimeric human ACVR1) [RU]	100 nM Mouse Receptor Binding (dimeric mouse ACVRL1) [RU]	100 nM Ag Bound (RU) [1] [RU]	Kd [1] [pM]	koff [1] [s⁻¹]	kon [1] [M⁻¹ s⁻¹]	t½ [1] [h]	Binder
140	1	2	20	8	2	147	3	135	36.2	0.000111	3.06e+06	1.73	REGN 5168 (antibody, human IgG4 S228P, kappa, V domains shown, also called REGN 5168-L1) VH: QVQLVQSGAEVKEPGASVKVSCKASGYTFAEYYMHWVRQAPGQGLEWMGAINPSGSHTSYAQKFQGRVTMTRDTSTSTVYMELSSLRSEDTAVYYCARSISGKRGGDYYGMDVWGQGTTVTVSS VL: DIQMTQSPSTLSASVGDRVTITCRASQSISSWLAWYQQKPGKAPKLLIYKASSLESGVPSRFSGSGSGTEFTLTISSLQPDDFATYYCQQYSIFPFTFGGGTKVEIKR
130	1	2	10	3	1	130	1	135	19.2	3.63e-05	1.89e+06	5.3	REGN 5167 (antibody, human IgG4 S228P, kappa, V domains shown, also called REGN 5167-L1) VH: QLQLQESGPGLVKPSETLSLTCTVSGGSITSSSYYWAWIRQPPGKGLEWIGKIYYSGSTHYNPSLKSRVTISVDTSKNQFSLKLSSVTAADTAVYYCARVGGHGYGDSAGLAFDIWGQGTMVTVSS VL: EIVLTQSPGTLSLSPGERATLSCRASQSVSSAFLAWYQQKPGQAPRLLIYGASYRHTGIPDRFSGSGSGTDFTLTISRLEPEDFAVYYCQHYGVGPRTFGGGTKVEIKR
141	1	2	24	9	4	147	4	134	17.9	3.63e-05	2.03e+06	5.3	REGN 5166 (antibody, human IgG4 S228P, kappa, V domains shown, also called REGN 5166-L1) VH: QVQLVESGGGVVQPGRSLRLSCAASGFTFSAYWMHWVRQAPGKGLEWVAVISYDGSNKYYADSVKGRFTISRDHSKNTLYLQMNSLRAEDTAVYYCAKGDAYDSWRILLGGDYYGMDVWGQGTTVTVSS VL: EIVLTQSPGTLSLSPGERATLSCRASQSVSSSYLAWYQQKPGQAPRPLIYGASSRATGIPDRFSGSGSGTDFTLTISRLEPEDFAVYYCQQGGDAPPYTFGGGTKVEIKR
